According to US20230365675A1 (published 2023):

B1: Anti-CD33-CAR5 (other)
chain: QVKLEESGGGSVQAGESLRLSCTASGITFRDYDIDWYRQAPGKEREWLATITPSGTTHYPDSVKGRATISRDSAKNTVYLQMNSLKPEDTARYECNTLAYWGSGTQVTVSSAAATTTPAPRPPTPAPTIASQPLSLRPEACRPAAGGAVHTRGLDFACDIYIWAPLAGTCGVLLLSLVITLYCKRGRKKLLYIFKQPFMRPVQTTQEEDGCSCRFPEEEEGGCELRVKFSRSADAPAYQQGQNQLYNELNLGRREEYDVLDKRRGRDPEMGGKPRRKNPQEGLYNELQKDKMAEAYSEIGMKGERRRGKGHDGLYQGLSTATKDTYDALHMQALPPR
B2: sdCD33_7 (VHH)
VHH: EVQLVESGGGLVQPGGSLRLSCVASGFTFKDYGMTWVRQAPGKALEWVSDINSAGDGIYYSDSVKGRFTISRDDSKGTLYLQMNSLTPEDTAIYYCAAERQRAGDVKRSLAPITAHIWGQGTQVTVSS
notes: sdAb from a naive llama phage library; also called 420; sdAb420
B3: Anti-CD33 CAR 7 (other)
chain: MELGLSWVVLAALLQGVQAQVQLVQPGGSLRLFCVASEEFFSIYAMGWYRQAPGKQHEMVARFTRDGKITYADSAKGRFTITRDAKNTLNLQMNGLIPEDTAVYYCNINHYWGQGTQVTVSSAAATTTPAPRPPTPAPTIASQPLSLRPEACRPAAGGAVHTRGLDFACDIYIWAPLAGTCGVLLLSLVITLYCKRGRKKLLYIFKQPFMRPVQTTQEEDGCSCRFPEEEEGGCELRVKFSRSADAPAYQQGQNQLYNELNLGRREEYDVLDKRRGRDPEMGGKPRRKNPQEGLYNELQKDKMAEAYSEIGMKGERRRGKGHDGLYQGLSTATKDTYDALHMQALPPR
B4: sdCD33_9 (VHH)
VHH: QVKLEESGGGLVRAGGSLRLSCAASGGTFSTYAMAWFRQAPGKEREFVAAITWGGGSTYYEDSVKGRFTISRDNAKNTGVLQMNNLDVDDTAVYYCYAFGRSRAGDANGDYWGQGTQVTVSS
notes: sdAb from a naive llama phage library; also called 426; sdAb426
B5: sdCD33_8 (VHH)
VHH: QVQLVESGGGLVQAGGSLRLSCAASGGAFSTYTMGWFRQAPGKEREFVAAIAWTGTHTYYSDSVKGRFTISRDNDKNTVFLQMNSLKPEDTAVYYCAQASSRYRAVTDSLSENHWGPGTQVTVST
notes: sdAb from a naive llama phage library; also called 424; sdAb424

Assays:
CD33 on MOLM-13 cells [1] = target: T1, CD33 on MOLM-13 cells (human, UniProt P20138 18-364); test: cell-based or functional assay
T1 sequence (P20138 18-364): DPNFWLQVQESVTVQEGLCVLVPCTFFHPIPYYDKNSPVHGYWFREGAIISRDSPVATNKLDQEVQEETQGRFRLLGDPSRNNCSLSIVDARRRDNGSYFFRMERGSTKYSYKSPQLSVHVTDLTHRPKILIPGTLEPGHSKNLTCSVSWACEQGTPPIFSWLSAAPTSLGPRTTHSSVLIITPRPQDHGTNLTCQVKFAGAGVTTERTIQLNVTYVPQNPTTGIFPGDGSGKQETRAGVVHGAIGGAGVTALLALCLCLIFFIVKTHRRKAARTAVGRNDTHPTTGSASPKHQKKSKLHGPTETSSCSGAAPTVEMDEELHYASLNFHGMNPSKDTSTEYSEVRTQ

[2] = target: CD33-GFP fusion protein, wild type (WT), on 293FT cells (UniProt P20138); test: FACS, WT CD33-GFP on 293FT cells
CD33-GFP fusion protein, wild type (WT), on 293FT cells, sequence (P20138 18-364): as above

[3] = target: Mutant CD33-GFP JS23 (L23N) on 293FT cells (UniProt P20138); test: FACS, mutant CD33-GFP on 293FT cells
Mutant CD33-GFP JS23 (L23N) on 293FT cells, sequence (P20138 18-364 L23N): as the sequence (P20138 18-364) above, with L6N counted along it

[4] = target: Mutant CD33-GFP JS24 (Q24E) on 293FT cells (UniProt P20138); test: FACS, mutant CD33-GFP on 293FT cells
Mutant CD33-GFP JS24 (Q24E) on 293FT cells, sequence (P20138 18-364 Q24E): as the sequence (P20138 18-364) above, with Q7E counted along it

[5] = target: Mutant CD33-GFP JS25 (V25M) on 293FT cells (UniProt P20138); test: FACS, mutant CD33-GFP on 293FT cells
Mutant CD33-GFP JS25 (V25M) on 293FT cells, sequence (P20138 18-364 V25M): as the sequence (P20138 18-364) above, with V8M counted along it

[6] = target: Mutant CD33-GFP JS28 (S28L) on 293FT cells (UniProt P20138); test: FACS, mutant CD33-GFP on 293FT cells
Mutant CD33-GFP JS28 (S28L) on 293FT cells, sequence (P20138 18-364 S28L): as the sequence (P20138 18-364) above, with S11L counted along it

[7] = target: Mutant CD33-GFP M10 (Y127A) on 293FT cells (UniProt P20138); test: FACS, mutant CD33-GFP on 293FT cells
Mutant CD33-GFP M10 (Y127A) on 293FT cells, sequence (P20138 18-364 Y127A): as the sequence (P20138 18-364) above, with Y110A counted along it

[8] = target: Mutant CD33-GFP M11 (L78T) on 293FT cells (UniProt P20138); test: FACS, mutant CD33-GFP on 293FT cells
Mutant CD33-GFP M11 (L78T) on 293FT cells, sequence (P20138 18-364 L78T): as the sequence (P20138 18-364) above, with L61T counted along it

[9] = target: Mutant CD33-GFP M12 (G88S) on 293FT cells (UniProt P20138); test: FACS, mutant CD33-GFP on 293FT cells
Mutant CD33-GFP M12 (G88S) on 293FT cells, sequence (P20138 18-364 G88S): as the sequence (P20138 18-364) above, with G71S counted along it

[10] = target: Mutant CD33-GFP M13 (R91E) on 293FT cells (UniProt P20138); test: FACS, mutant CD33-GFP on 293FT cells
Mutant CD33-GFP M13 (R91E) on 293FT cells, sequence (P20138 18-364 R91E): as the sequence (P20138 18-364) above, with R74E counted along it

[11] = target: Mutant CD33-GFP M14 (E170R) on 293FT cells (UniProt P20138); test: FACS, mutant CD33-GFP on 293FT cells
Mutant CD33-GFP M14 (E170R) on 293FT cells, sequence (P20138 18-364 E170R): as the sequence (P20138 18-364) above, with E153R counted along it

[12] = target: Mutant CD33-GFP M15 (Q171A) on 293FT cells (UniProt P20138); test: FACS, mutant CD33-GFP on 293FT cells
Mutant CD33-GFP M15 (Q171A) on 293FT cells, sequence (P20138 18-364 Q171A): as the sequence (P20138 18-364) above, with Q154A counted along it

[13] = target: Mutant CD33-GFP M16 (4889AII) on 293FT cells (UniProt P20138); test: FACS, mutant CD33-GFP on 293FT cells
[14] = target: Mutant CD33-GFP M17 (F21Y) on 293FT cells (UniProt P20138); test: FACS, mutant CD33-GFP on 293FT cells
Mutant CD33-GFP M17 (F21Y) on 293FT cells, sequence (P20138 18-364 F21Y): as the sequence (P20138 18-364) above, with F4Y counted along it

[15] = target: Mutant CD33-GFP M18 (353AAL) on 293FT cells (UniProt P20138); test: FACS, mutant CD33-GFP on 293FT cells
[16] = target: Mutant CD33-GFP M19 (348ATAI) on 293FT cells (UniProt P20138); test: FACS, mutant CD33-GFP on 293FT cells
[17] = target: Mutant CD33-GFP M4 (R122D) on 293FT cells (UniProt P20138); test: FACS, mutant CD33-GFP on 293FT cells
Mutant CD33-GFP M4 (R122D) on 293FT cells, sequence (P20138 18-364 R122D): as the sequence (P20138 18-364) above, with R105D counted along it

[18] = target: Mutant CD33-GFP M5 (AEAD), quadruple mutant, on 293FT cells (UniProt P20138); test: FACS, mutant CD33-GFP on 293FT cells
Mutant CD33-GFP M5 (AEAD), quadruple mutant, on 293FT cells, sequence (P20138 other isoform, or with tags, fused parts or gaps mutant): as the sequence (P20138 18-364) above, with W5A, H28E, N82A, R105D counted along it

[19] = target: Mutant CD33-GFP M9 (Y49, 50A) on 293FT cells (UniProt P20138); test: FACS, mutant CD33-GFP on 293FT cells
Mutant CD33-GFP M9 (Y49, 50A) on 293FT cells, sequence (P20138 other isoform, or with tags, fused parts or gaps mutant): as the sequence (P20138 18-364) above, with Y32A, Y33A counted along it

[20] = target: Mutant CD33-GFP N20D on 293FT cells (UniProt P20138); test: FACS, mutant CD33-GFP on 293FT cells
Mutant CD33-GFP N20D on 293FT cells, sequence (P20138 18-364 N20D): as the sequence (P20138 18-364) above, with N3D counted along it

[21] = target: T2, Mutant CD33-GFP M1 (W22A) on 293FT cells (UniProt P20138 18-364); test: FACS, mutant CD33-GFP on 293FT cells
T2 construct: whole, on cells; not shown: GFP fused to CD33
T2 sequence (P20138 18-364 W22A): as the sequence (P20138 18-364) above, with W5A counted along it

[22] = target: T3, Mutant CD33-GFP M2 (H45E) on 293FT cells (UniProt P20138 18-364); test: FACS, mutant CD33-GFP on 293FT cells
T3 construct: whole, on cells; not shown: GFP fused to CD33
T3 sequence (P20138 18-364 H45E): as the sequence (P20138 18-364) above, with H28E counted along it

[23] = target: T4, Mutant CD33-GFP M3 (N99A) on 293FT cells (UniProt P20138 18-364); test: FACS, mutant CD33-GFP on 293FT cells
T4 construct: whole, on cells; not shown: GFP fused to CD33
T4 sequence (P20138 18-364 N99A): as the sequence (P20138 18-364) above, with N82A counted along it

[24] = target: T5, Mutant CD33-GFP M6 (F43N) on 293FT cells (UniProt P20138 18-364); test: FACS, mutant CD33-GFP on 293FT cells
T5 construct: whole, on cells; not shown: GFP fused to CD33
T5 sequence (P20138 18-364 F43N): as the sequence (P20138 18-364) above, with F26N counted along it

[25] = target: T6, Mutant CD33-GFP M7 (R98D) on 293FT cells (UniProt P20138 18-364); test: FACS, mutant CD33-GFP on 293FT cells
T6 construct: whole, on cells; not shown: GFP fused to CD33
T6 sequence (P20138 18-364 R98D): as the sequence (P20138 18-364) above, with R81D counted along it

[26] = target: T7, Mutant CD33-GFP M8 (K52A) on 293FT cells (UniProt P20138 18-364); test: FACS, mutant CD33-GFP on 293FT cells
T7 construct: whole, on cells; not shown: GFP fused to CD33
T7 sequence (P20138 18-364 K52A): as the sequence (P20138 18-364) above, with K35A counted along it

[27] = target: Biotinylated CD33 protein (UniProt P20138); test: Octet competition on biotinylated CD33; competitor 348
Biotinylated CD33 protein, sequence (P20138 18-259 limits assumed): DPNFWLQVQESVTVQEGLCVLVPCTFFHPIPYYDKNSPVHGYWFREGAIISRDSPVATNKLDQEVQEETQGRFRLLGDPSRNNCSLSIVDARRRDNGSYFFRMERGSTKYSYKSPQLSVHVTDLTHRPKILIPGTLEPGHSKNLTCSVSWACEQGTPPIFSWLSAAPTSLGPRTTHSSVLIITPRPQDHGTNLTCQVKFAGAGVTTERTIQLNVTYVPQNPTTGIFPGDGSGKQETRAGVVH

[28] = target: Biotinylated CD33 protein (UniProt P20138); test: Octet competition on biotinylated CD33; competitor 353
[29] = target: Biotinylated CD33 protein (UniProt P20138); test: Octet competition on biotinylated CD33; competitor 389
[30] = target: Biotinylated CD33 protein (UniProt P20138); test: Octet competition on biotinylated CD33; competitor 413
[31] = target: Biotinylated CD33 protein (UniProt P20138); test: Octet competition on biotinylated CD33; competitor 416
[32] = target: Biotinylated CD33 protein (UniProt P20138); test: Octet competition on biotinylated CD33; competitor 424
[33] = target: Biotinylated CD33 protein (UniProt P20138); test: Octet competition on biotinylated CD33; competitor 426
[34] = target: Biotinylated CD33 protein (UniProt P20138); test: Octet competition on biotinylated CD33; competitor 429
[35] = target: Biotinylated CD33 protein (UniProt P20138); test: Octet competition on biotinylated CD33; competitor 430
[36] = target: Biotinylated CD33 protein (UniProt P20138); test: Octet competition on biotinylated CD33; competitor h195
CD33 on MOLM-13 cells [37] = target: T1, CD33 on MOLM-13 cells; test: FACS, MOLM-13 cells expressing CD33 against MOLM-13 CD33 knockout
Description: A naïve llama phage library was panned and screened to identify single domain antibodies that specifically recognize CD33. A MOLM-13 cell line expressing CD33 was used as a CD33-positive cell line, and a MOLM-13 cell line harboring a knockout of CD33 was used as a CD-33 negative cell line. A purified anti-human CD33 antibody was used as a positive control. Specific binding activity of identified binders was confirmed by FACS. The heavy chain variable region sequences of the identified binders are included herein.

[38] = target: Biotinylated CD33 protein (UniProt P20138); test: Octet competition on biotinylated CD33; competitor 420

| Binder | FACS binding data [2] | FACS binding data [3] | FACS binding data [4] | FACS binding data [5] | FACS binding data [6] | FACS binding data [7] | FACS binding data [8] | FACS binding data [9] | FACS binding data [10] | FACS binding data [11] | FACS binding data [12] | FACS binding data [13] | FACS binding data [14] | FACS binding data [15] | FACS binding data [16] | FACS binding data [17] | FACS binding data [18] | FACS binding data [19] | FACS binding data [20] | FACS binding data [21] | further results |
| --- | --- | --- | --- | --- | --- | --- | --- | --- | --- | --- | --- | --- | --- | --- | --- | --- | --- | --- | --- | --- | --- |
| B1 | – | – | – | – | – | – | – | – | – | – | – | – | – | – | – | – | – | – | – | – | Ratio (CD33 on MOLM-13 cells [1]): 8.5; Testing FP2 Expression (CD33+) (CD33 on MOLM-13 cells [1]): 28.2 % of constitutive-fluorescence-positive cells |
| B2 | 98.6 | 98.7 | 99.1 | 99.5 | 99.6 | 98.1 | 72.4 | 98.7 | 98.8 | 98.7 | 98.9 | 98.5 | 99.1 | 99.1 | 99.4 | 97.8 | 0.15 | 34.6 | 99.1 | 98.4 | FACS binding data [22]: 91.5; FACS binding data [23]: 98.9; FACS binding data [24]: 98.3; FACS binding data [25]: 74.8; FACS binding data [26]: 8.64; Octet signal [27]: 0.139; Octet signal [28]: 0.183; Octet signal [29]: 0.376; Octet signal [30]: 0.2; Octet signal [31]: -0.094; Octet signal [32]: -0.0931; Octet signal [33]: 0.0276; Octet signal [34]: -0.124; Octet signal [35]: 0.457; Octet signal [36]: 0.579; binding result (CD33 on MOLM-13 cells [37]): binds |
| B3 | – | – | – | – | – | – | – | – | – | – | – | – | – | – | – | – | – | – | – | – | Ratio (CD33 on MOLM-13 cells [1]): 1.98; Testing FP2 Expression (CD33+) (CD33 on MOLM-13 cells [1]): 17.6 % of constitutive-fluorescence-positive cells |
| B4 | 99.2 | 99.2 | 99.4 | 99.7 | 99.7 | 96.1 | 77.8 | 99.2 | 99.3 | 99.2 | 99.3 | 99 | 99.1 | 99.3 | 99.8 | 95.9 | 1.2 | 1.25 | 99.1 | 99.5 | FACS binding data [22]: 97.7; FACS binding data [23]: 99.5; FACS binding data [24]: 99.2; FACS binding data [25]: 99.1; FACS binding data [26]: 96.8; Octet signal [27]: 0.183; Octet signal [28]: 0.259; Octet signal [29]: 0.53; Octet signal [30]: 0.257; Octet signal [31]: 0.304; Octet signal [38]: 0.191; Octet signal [32]: 0.0441; Octet signal [34]: 0.0225; Octet signal [35]: 0.538; Octet signal [36]: 0.743; binding result (CD33 on MOLM-13 cells [37]): binds |
| B5 | 98.6 | 97.8 | 99.4 | 99.6 | 99.6 | 83.7 | 65.9 | 98.8 | 99.1 | 98.8 | 98.7 | 98.5 | 99 | 70.2 | 99.5 | 98.6 | 0.07 | 0.23 | 98.3 | 80.1 | FACS binding data [22]: 97.3; FACS binding data [23]: 3.43; FACS binding data [24]: 98.6; FACS binding data [25]: 97.2; FACS binding data [26]: 95.4; Octet signal [27]: 0.154; Octet signal [28]: 0.444; Octet signal [29]: 0.356; Octet signal [30]: 0.37; Octet signal [31]: 0.086; Octet signal [38]: 0.266; Octet signal [33]: 0.239; Octet signal [34]: 0.163; Octet signal [35]: 0.733; Octet signal [36]: 0.648; binding result (CD33 on MOLM-13 cells [37]): binds |
